As usually defined, the Kd is the equilibrium constant for the complex coming apart.

Where no end group is shown, it is not given here.

The results in this text go back to patent publication US20200123212A1 (3M INNOVATIVE PROPERTIES, published 2020).

For assay [1], the target named is T1, Recombinant Human Epidermal Growth Factor (EGF) (human, UniProt P01133 971-1023).
T1 construct: Bought reagent; also called EGF protein
In words: dot blot, peptide spotted on nitrocellulose, EGF in solution, detected with anti-EGF-IgG-HRP. The method, then:
SEQ ID NO: 1 (1 microliter of a 10 nM solution in PBS containing 3 wt. % DMSO) and SEQ ID NO: 2 (1 microliter of a 10 nM solution in PBS containing 3 wt. % DMSO) were individually spotted at separate sites on a nitrocellulose membrane (obtained from Thermo Fisher Scientific, Waltham, Mass.) and the membrane was dried in air for about 30 minutes. The membrane was then incubated in 25 mL of blocking buffer (3 wt. % BSA in PBS) for one hour at room temperature. The membrane was washed three times (15 minutes for each wash) with 15 mL portions of fresh PBST. The washed membrane was incubated with EGF protein [10 microliters of a 100 ng/mL solution in blocking buffer (3 wt. % BSA in PBS)] with gentle agitation for one hour. The membrane was again washed three times (15 minutes for each wash) with 15 mL portions of fresh PBST. The washed membrane was incubated with anti-EGF-IgG-HRP [1:5000 dilution in 10 mL of the blocking buffer (3 wt. % BSA in PBS)] for one hour with gentle agitation. Following the incubation, the membrane was washed three times (15 minutes for each wash) with 15 mL portions of fresh PBST. The washed membrane was incubated with 10 mL of the development solution for horseradish peroxidase (TMB-Blotting Substrate Solution, Pierce-Fisher Scientific, Rockford, Ill.) with gentle agitation. The color development was stopped by adding water.

Assay [2] has as its target T1, Recombinant Human Epidermal Growth …. Kind of assay: dot blot, EGF spotted on nitrocellulose, biotinylated peptide in solution, detected with Streptavidin-HRP. The method, then:
EGF (1 microliter of a 10 nM solution in PBS was spotted a nitrocellulose membrane (obtained from Thermo Fisher Scientific) and the membrane was dried in air for about 30 minutes. The membrane was then incubated in 15 mL of blocking buffer (3 wt. % BSA in PBS) for one hour at room temperature. The membrane was washed three times (15 minutes for each wash) with 15 mL portions of fresh PBST. The washed membrane was incubated with Biotinylated SEQ ID NO: 1 [10 mL of a 10 ng/mL solution in blocking buffer (3 wt. % BSA in PBS)] with gentle agitation for one hour. The membrane was again washed three times (15 minutes for each wash) with 15 mL portions of fresh PBST. The washed membrane was incubated with Streptavidin-HRP [1:5000 dilution in 10 mL of the blocking buffer (3 wt. % BSA in PBS)] for 30 minutes with gentle agitation. Following the incubation, the membrane was washed three times (15 minutes for each wash) with 15 mL portions of fresh PBST. The washed membrane was incubated with 10 mL of the development solution for horseradish peroxidase (TMB-Blotting Substrate Solution, Pierce-Fisher Scientific) with gentle agitation. The color development was stopped by adding water. A dark spot developed at the application site on the membrane indicating affinity of SEQ ID NO: 1 for EGF.

In assay [3] the target is T2, Recombinant Human Tumor Necrosis Factor-alpha (TNF-alpha) (human, UniProt P01375 77-233).
T2 construct: Bought reagent; also called TNFα
T2 sequence (P01375 77-233 limits assumed): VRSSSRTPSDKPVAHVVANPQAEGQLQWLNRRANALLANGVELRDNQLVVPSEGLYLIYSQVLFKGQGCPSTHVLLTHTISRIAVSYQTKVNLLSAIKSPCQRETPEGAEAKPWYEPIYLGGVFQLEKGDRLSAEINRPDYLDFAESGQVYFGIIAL
Kind of assay: SPR (Test Method A of Example 3), peptide immobilised, TNF-alpha injected. The method, then:
(§1) The following Test Method A was used for determining the binding affinity (KD) of SEQ ID NO: 1 for EGF and TNF-[…] Binding experiments were performed using Biacore 3000 optical biosensors equipped with research-grade CM5 sensor chips (GE Healthcare Bio-Sciences Corporation). The reagents used for the amine-coupling steps [(1-ethyl-3-(3-dimethylaminopropyl)-carbodiimide (EDC); N-hydroxysuccinimide (NHS); and ethanolamine hydrochloride-NaOH (1 M, pH 8.5)] were obtained from GE Healthcare Bio-Sciences Corporation. In order to efficiently immobilize the peptide on the sensor chips, a modified version of SEQ ID NO:1 was prepared by SPPS in which a “CK” amino acid linker sequence was added to the N-terminal end of the SEQ ID NO: 1 peptide (i.e. linker modified version of SEQ ID NO: 1 for immobilization being […]). A standard coupling protocol was employed to immobilize the linker modified version of SEQ ID NO: 1 via the lysine residue. The immobilization was performed at 25° C. using HBS-EP as the running buffer. The CM-dextran surfaces of the sensor chip flow cells were activated by a seven minute injection (20 microliters/minute) of freshly prepared 1:1 50 mM NHS: 200 mM EDC. A solution of linker modified SEQ ID NO: 1 in acetic acid (20 mM, pH 5.5) was injected to target 200 response units (RU). […]

Assay [4] concerns the target T1, Recombinant Human Epidermal Growth …. Kind of assay: SPR (Test Method A of Example 3), peptide immobilised, EGF injected. The method, then:
as §1

Assay [5] shares this target. In words: SPR (Biacore 3000, CM5), peptide immobilised, EGF injected at 62.5-1000 nM, 25 C, 1:1 Langmuir global fit. The method, then:
as §1
Background: In SPR one partner is held on a chip, and binding of the other changes the refractive index at the surface.

Assay [6] has as its target T2, Recombinant Human Tumor Necrosis …. In words: SPR (Biacore 3000, CM5), peptide immobilised, TNF-alpha injected at 62.5-1000 nM, 25 C, 1:1 Langmuir global fit. The method, then: as §1

T1 sequence (P01133 971-1023 limits assumed): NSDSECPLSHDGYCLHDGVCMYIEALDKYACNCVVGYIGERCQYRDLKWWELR

Regarding Ac-WFEWPYWE-NH2 (Chemically synthesised (SPPS)) [peptide SEQ ID NO: 2 (WFEWPYWE)], the binding result in assay [1] is “binds”.

Consider WFEWPYWEMNVPDVWN (also: biotinylated, site not given here) [Biotinylated SEQ ID NO: 1], for which the binding result in assay [2] was “binds”.

B1: linker modified version of SEQ ID NO: 2 (CKWFEWPYWE) (peptide)
peptide: CKWFEWPYWE
modifications: also: immobilised on CM5 sensor chip via Lys of linker, conjugated to iodoacetyl magnetic beads via Cys of linker
Take B1: the dissociation constant (Kd) stood at 340 µM in assay [3] and 0.466 µM in assay [4].

With CKWFEWPYWEMNVPDVWN (also: amine-coupled to CM5 sensor chip via Lys of CK linker) [linker modified version of SEQ ID NO: 1 (CKWFEWPYWEMNVPDVWN)], the Kd came out at 0.087 µM in assay [5] and 75.1 µM in assay [6].

In the case of Ac-WFEWPYWEMNVPDVWN-NH2 (Chemically synthesised (SPPS)) [peptide SEQ ID NO: 1 (WFEWPYWEMNVPDVWN)], the binding result in assay [1] is “binds”.
